Test results from patent US20190031781A1.

Experiments:
[1] = target: carboxymethyl lysine conjugated to keyhole limpet hemocyanin (CML-KLH); assay: direct binding ELISA, CML-KLH coat 1 ug/mL, antibody at 0.62 ug/mL
[2] = target: carboxymethyl lysine conjugated to keyhole limpet hemocyanin (CML-KLH); assay: direct binding ELISA, CML-KLH coat 1 ug/mL, antibody at 50 ug/mL
[3] = target: carboxymethyl lysine conjugated to keyhole limpet hemocyanin (CML-KLH); assay: direct binding ELISA, CML-KLH coat 1 ug/mL, antibody at 16.67 ug/mL
[4] = target: carboxymethyl lysine conjugated to keyhole limpet hemocyanin (CML-KLH); assay: direct binding ELISA, CML-KLH coat 1 ug/mL, antibody at 0.07 ug/mL
[5] = target: carboxymethyl lysine conjugated to keyhole limpet hemocyanin (CML-KLH); assay: direct binding ELISA, CML-KLH coat 1 ug/mL, antibody at 0.21 ug/mL
[6] = target: carboxymethyl lysine conjugated to keyhole limpet hemocyanin (CML-KLH); assay: direct binding ELISA, CML-KLH coat 1 ug/mL, antibody at 1.85 ug/mL
[7] = target: carboxymethyl lysine conjugated to keyhole limpet hemocyanin (CML-KLH); assay: direct binding ELISA, CML-KLH coat 1 ug/mL, antibody at 5.56 ug/mL

## carboxymethyl lysine MAb (Clone 318003), R&D Systems, catalog no. MAB3247 (antibody)
[1]
  OD450: 0.083
[2]
  OD450: 0.462
[3]
  OD450: 0.312
[4]
  OD450: 0.086
[5]
  OD450: 0.075
[6]
  OD450: 0.092
[7]
  OD450: 0.165
